Results as given in PMC4901313.

Target: Gp45, receptor binding protein (RBP) of Staphylococcus aureus phage ϕ11 (Staphylococcus aureus phage ϕ11)
Assay: crystal structure; native crystals, space group P1, 2.20 Å; grown in 0.1 M bicine/Trizma base pH 8.5, 10% w/v PEG 8000, 20% v/v ethylene glycol, 0.12 M monosaccharide-mix at 16 °C; three monomers related by non-crystallographic three-fold symmetry

For “Gp45, receptor binding protein (RBP) of Staphylococcus aureus phage ϕ11 (natural protein)”, which stoichiometry N is on record?
Its stoichiometry N is 3.
